Drawing on publication PMC7736355, this text covers fraction of the sample present as VP1 dimers (rest in the void peak as non-dissociated VLPs) and stoichiometry N for one substance.

Experiment [1] concerns the target VP1 protein from GI.1 Norwalk strain (GI.1 WT) (human norovirus GI.1 Norwalk strain). The experiment is described as follows: SEC; analytical size-exclusion chromatography, Superdex 200 Increase 10/300 GL in PBS, 200 µg VLPs; fractions analysed by SDS–PAGE. A general note: In gel filtration, larger molecules generally elute earlier.
Experiment [2] shares this target. The experiment is described as follows: negative staining electron microscopy; VLP samples at ~0.1 mg/mL (0.01–0.05 mg/mL when fragments were present) in 10 mM HEPES pH 7.0, 150 mM NaCl; 0.75% uranyl formate; reference-free 2D class averages.

As usually defined, the stoichiometry N is a count of units in the complex or per binding partner. Turning to “VP1 protein from GI.1 Norwalk strain (GI.1 WT) (natural protein)”, in experiment [1], the fraction of the sample present as VP1 dimers (rest in the void peak as non-dissociated VLPs) is 20% and the stoichiometry N was 2. The substance also yielded a stoichiometry N in experiment [2] of 2.
